Reference: patent JP2008515970A

Molecular target: ヒトVEGF (human) (UniProt P15692)
Experiment: cell-based or functional assay

Chain of UniProt P15692 (P15692 other isoform, or with tags, fused parts or gaps limits assumed): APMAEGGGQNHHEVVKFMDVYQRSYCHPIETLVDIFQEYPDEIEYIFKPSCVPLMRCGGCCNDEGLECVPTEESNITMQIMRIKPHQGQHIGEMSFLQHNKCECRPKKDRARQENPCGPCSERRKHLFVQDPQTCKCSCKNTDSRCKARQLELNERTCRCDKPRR

Substance: VEGFR1−Fc−IL−1ra (Fc fusion)
- EC50 (inhibition of VEGF-dependent HUVE cell proliferation, VEGF 10 ng/ml): 15 ng/mL
